Measured values from patent US20230121197A1, “ANTIBODIES SPECIFICALLY BINDING THE CARBOXYMETHYLATED CATALYTIC SUBUNIT OF PROTEIN PHOSPHATASE 2A” (Medizinische Universität Wien, priority 2020, published 2023).

T1: PP2Ac C-terminal peptide meL309, ac-HVTRRTPDYFL-CH3 (α-carboxymethylated) (human, SMILES …)
T1 construct: also called Y307-meL309; mePP2Ac
T1 peptide: Ac-HVTRRTPDYFL-OMe


What was measured:
[1] = target: T1, PP2Ac C-terminal peptide meL309, …; test: SPR, from KD 11 nM against >5000 nM
Source text: (A) Saturation curve of the titration of the α-carboxymethylated PP2Ac C-terminal peptide (SEQ ID NO:18) on 7C10-C5 or 2A10 immobilized on a Series S Sensor Chip CM5 (GE Healthcare, 10296958). […] (B) Saturation curve of the titration of the α-carboxymethylated PP4c C-terminal peptide (SEQ ID NO:20) on 7C10-C5 or 2A10 immobilized on a Series S Sensor Chip CM5 (GE Healthcare, 10296958). […] The KD values were obtained using the fitting tool of the BiacoreT200 Evaluation Software (version 3.1).
The differential affinity of anti-carboxymethylated PP2Ac antibodies, 7C10-C5 and 2A10, to carboxymethylated PP2A catalytic subunit versus noncarboxymethylated PP2A catalytic subunit was determined by surface plasmon resonance (SPR) on a Biacore T200 (GE Healthcare) at the Core Facility Biomolecular & Cellular Analysis (University of Natural Resources and Life Sciences Vienna BOKU). The affinity of 7C10-C5 for carboxymethylated and noncarboxymethylated catalytic subunit of PP4 (PP4c), a PP2A-related phosphatase, was also determined.

[2] = target: α-carboxymethylated PP2Ac (Homo sapiens, UniProt P67775); test: IHC tissue microarray analysis of localized and metastatic prostate cancer tissue, Allred scoring; design: IHC tissue microarray analyses of prostate cancer tissue with the 7C10-C5 antibody; from tissue; host or cells: localized and metastatic prostate cancer tissue (tissue microarray, FFPE)
Experimental: Immunohistochemical staining was performed on the DAKO Autostainer (DAKO, Carpinteria, Calif.) using Envision+ or liquid streptavidin-biotin and diaminobenzadine (DAB) as the chromogen. De-paraffinized sections were labeled with mouse monoclonal antibody 7C10-C5 (1:200) overnight at 4 C. Microwave 10 mM Tris HCl, pH9 containing 1 mM EDTA epitope retrieval was used prior to staining. Appropriate negative (no primary antibody) and positive controls (pancreas) were stained in parallel with each set of slides studied. Peptide competition studies were performed using 2 peptides ([…]*) (SEQ ID NO:115) differing in the methylation status at position L (marked with a *); FIG. 13E: Peptides were incubated at ambient temperature for 60 mins at 10-1000× molar ratios before being applied to the slide. FIG. 13F: Before being stained, slides were incubated in freshly made 200 mM NaOH for 10 mins at 4° C. and then neutralized by several washes in TBST.
Stained slides were scanned using an APERIO AT2 (Leica) and the digital images imported into QuPath (Bankhead et al., 2017). TMA cores were analyzed for percentage of cells staining and intensity. In FIGS. 13E and F, higher visibility of the dark cell nuclei indicates weaker α-carboxymethylated PP2Ac staining.
The assembly of trimeric tumor-suppressive PP2A holoenzymes is promoted/facilitated by PP2Ac α-carboxymethylation. The PP2Ac α-carboxymethylation levels correlate positively with the levels of methylation-sensitive trimeric PP2A holoenzymes. A truly specific anti-methyl-PP2Ac antibody (7C10-C5) can be used to determine the α-carboxymethylated PP2Ac levels in normal and disease tissue by IHC analyses of tissue microarrays of cancer, normal tissues and tissues obtained from other disease states including but not limited to heart disease, Alzheimers disease, and diabetes. The PP2A methylation status in disease tissue can be graded using the Allred scoring system that scores the proportion of cells that stain by IHC as well as the intensity of the IHC staining. […] Allied scoring is calculated the following way: […]

[3] = IHC, mean±standard deviation, 12 samples

α-carboxymethylated PP2Ac, sequence (P67775 whole entry): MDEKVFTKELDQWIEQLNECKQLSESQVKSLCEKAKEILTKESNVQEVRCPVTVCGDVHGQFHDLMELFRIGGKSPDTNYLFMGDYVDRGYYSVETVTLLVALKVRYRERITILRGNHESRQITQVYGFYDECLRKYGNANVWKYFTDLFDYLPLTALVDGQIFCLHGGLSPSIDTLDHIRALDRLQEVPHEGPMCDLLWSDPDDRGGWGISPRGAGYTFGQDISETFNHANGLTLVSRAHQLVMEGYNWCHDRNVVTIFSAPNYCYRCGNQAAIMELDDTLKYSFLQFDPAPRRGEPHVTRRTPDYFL

Molecule | fold stronger binding than to non-carboxymethylated PP2Ac [1] | average Allred score, localized prostate cancer tissues [2, 3] | average Allred score, metastatic prostate cancer tissues [2, 3] | discrimination between localized and metastatic prostate cancer by IHC staining ([2]; tissue microarray, Allred score)
7C10-C5 monoclonal antibody (antibody, V domains shown, Used as hybridoma culture supernatant (ELISA, Western blot, IHC) or at 50 µg/mL (SPR); also called 7C10 X63; clone 7C10-C5) VH: DVQLQESGPGLVKPSQSLSLTCSVTGYSITSGYYWNWIRQFPGNKLEWMGYISYDGSNNYNPSLKNRISITRDTSKNQFFLKLNSVTTEDTATYYCAGRFAYWGQGTLVTVSA VL: DVLMTQTPLSLPVSLGDQASISCRSSQSIVHSNGNTYLEWYLQKPGQSPKLLIYKVSNRFSGVPDRFSGSGSGTDFTLKINRVEAEDLGVYYCFQGSHVPWTFGGGTKLEIK | ≥ 400 fold | – | – | –
7C10-C5: α-carboxymethylation specific mouse monoclonal IgG1 antibody from single clone hybridoma 7C10-C5 (DSM ACC3350) (antibody, Amino acid sequence of the recombinant 7C10-C5 heavy chain; Amino acid sequence of the recombinant 7C10-C5 light chain) heavy: MYRMQLLSCIALSLALVTNSDVQLQESGPGLVKPSQSLSLTCSVTGYSITSGYYWNWIRQFPGNKLEWMGYISYDGSNNYNPSLKNRISITRDTSKNQFFLKLNSVTTEDTATYYCAGRFAYWGQGTLVTVSAAKTTAPSVYPLAPVCGDTTGSSVTLGCLVKGYFPEPVTLTWNSGSLSSGVHTFPAVLQSDLYTLSSSVTVTSSTWPSQSITCNVAHPASSTKVDKKIEPRGPTIKPCPPCKCPAPNLLGGPSVFIFPPKIKDVLMISLSPIVTCVVVDVSEDDPDVQISWFVNNVEVHTAQTQTHREDYNSTLRVVSALPIQHQDWMSGKEFKCKVNNKDLPAPIERTISKPKGSVRAPQVYVLPPPEEEMTKKQVTLTCMVTDFMPEDIYVEWTNNGKTELNYKNTEPVLDSDGSYFMYSKLRVEKKNWVERNSYSCSVVHEGLHNHHTTKSFSRTPGK light: MDMRVPAQLLGLLLLWLSGARCDVLMTQTPLSLPVSLGDQASISCRSSQSIVHSNGNTYLEWYLQKPGQSPKLLIYKVSNRFSGVPDRFSGSGSGTDFTLKINRVEAEDLGVYYCFQGSHVPWTFGGGTKLEIKADAAPTVSIFPPSSEQLTSGGASVVCFLNNFYPKDINVKWKIDGSERQNGVLNSWTDQDSKDSTYSMSSTLTLTKDEYERHNSYTCEATHKTSTSPIVKSFNRNEC | – | 2.2±2.3 | 0.4±1.4 | significantly lower levels
